In article PMC9026390:

How the values were obtained:
[1] = target: VvGH17 C-terminal-truncated mutant ΔC466 (Vibrio vulnificus); test: native gel or EMSA; blue native PAGE, 5–10% gradient gel, 4 °C, 150 V for 3.5 h; 50 mM tricine, 15 mM bis-Tris/HCl, pH 7; cathode buffer with 0.02% Coomassie blue G250; monomer to trimer
[2] = target: glycoside hydrolase family 17 β-1,3-glucanase of Vibrio vulnificus (VvGH17), wild type (Vibrio vulnificus); test: as above

Row | Substance | stoichiometry N [1] | stoichiometry N [2]
1 | VvGH17 C-terminal-truncated mutant ΔC466 (domain or fragment) | 3 | –
2 | glycoside hydrolase family 17 β-1,3-glucanase of Vibrio vulnificus (VvGH17), wild type (enzyme) | – | 3
